Biological target: T1, PhFc-Cε3/Cε41-222 (human, UniProt P01854 211-427, N-linked carbohydrate attached at N394 (NAG/MAN residues 694-699 in Table 1))
T1 construct: Fc fragment of human IgE (Cε3 and Cε4 domains); It is a dimer of two identical chains with an interchain disulfide near residue 329; Produced in Trichoplusia ni (Hi-5) insect cells; also called human IgE-Fc Cε3/Cε4 domains; IgE-Fc
Experiment: complex formation and co-crystallization, crystal form I
Method: The structure was determined by molecular replacement techniques as described in Methods. Manual model building was done with the program O¹⁸ and refinement carried out with CNS¹⁹. Current refinement statistics for the complex are shown in Table 3, with an overall R-free of 29.3% and R-cryst of 27.0% to 3.25 Å.
Human IgE-Fc Cε3/Cε4 domains and a carbohydrate mutant of the FcεRIα¹¹ were expressed in insect cells essentially as described for IgE-Fc Cε3/Cε4 in 60/189,403. Complexes of wt-Fc-Cε3/Cε4 and wt-FcεRIα produced only poorly diffracting crystals. Since the receptor is heavily glycosylated (˜33% carbohydrate by weight), and the carbohydrate sites are dispersed on the receptor surface, a subset of these attachment sites was removed to improve the protein crystallization. A previously-described carbohydrate mutant of the receptor¹⁷ lacking three of the seven wild type carbohydrate sites (residues 74, 135, and 140) located on both D1 and D2 in the receptor structure. The triple receptor mutant, FcεRIαΔ4-6 was subcloned into the pvl1392 baculovirus transfer vector and recombinant virus produced. The mutant receptor was active, expressed well and was purified by affinity chromatography similarly to the wt protein. […]

T1 sequence (P01854 other isoform, or with tags, fused parts or gaps limits assumed): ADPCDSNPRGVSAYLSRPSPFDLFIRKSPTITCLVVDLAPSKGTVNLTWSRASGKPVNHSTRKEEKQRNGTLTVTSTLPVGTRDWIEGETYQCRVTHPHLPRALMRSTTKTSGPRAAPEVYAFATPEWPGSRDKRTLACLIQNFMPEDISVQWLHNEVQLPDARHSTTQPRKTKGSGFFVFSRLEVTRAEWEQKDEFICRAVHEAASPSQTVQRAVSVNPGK

binding result: binds
B1: PhFcεRIα1-176 (receptor)
chain: VPQKPKVSLNPPWNRIFKGENVTLTCNGNNFFEVSSTKWFHNGSLSEETNSSLNIVNAKFEDSGEYKCQHQQVNESEPVYLEVFSDWLLLQASAEVVMEGQPLFLRCHGWRNWDVYKVIYYKDGEALKYWYENHNISITNATVEDSGTYYCTGKVWQLDYESEPLNITVIKAPREK
modifications: N-linked carbohydrate (seven native attachment sites; about 33% carbohydrate by weight)
notes: also called hFcεRIα1-176 protein; wild type (wt) FcεRIα

Reference: patent US20030003502A1 (published 2003)
